The record followed here is publication PMC10720262 (2023).

This experiment concerns the target PfCSP full length (Plasmodium falciparum (isolate NF54), UniProt P19597). The experiment in a line: ELISA AUC. On the technique in general: ELISA stands for enzyme-linked immunosorbent assay.

Chain of PfCSP full length (P19597 20-375): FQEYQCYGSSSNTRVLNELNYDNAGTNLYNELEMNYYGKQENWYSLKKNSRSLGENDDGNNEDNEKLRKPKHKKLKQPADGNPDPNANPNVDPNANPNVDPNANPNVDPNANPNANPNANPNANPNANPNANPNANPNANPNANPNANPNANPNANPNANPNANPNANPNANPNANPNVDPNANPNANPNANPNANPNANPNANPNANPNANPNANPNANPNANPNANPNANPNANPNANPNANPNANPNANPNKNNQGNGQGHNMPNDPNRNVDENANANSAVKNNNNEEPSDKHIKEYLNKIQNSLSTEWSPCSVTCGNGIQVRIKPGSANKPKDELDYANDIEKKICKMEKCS

B1: CL-444592 (antibody, V domains shown)
VH: QVQLVESGGGVVQPGRSLRLSCAASGFTFSSYGMHWVRQAPGKGLEWVAVIWYDGSNKYYADSVKGRFTISRDNSKNTLYLQMNSLRAEDTAVYYCARDGNWNYNYYYGMDVWGQGTTVTVSS
VL: DIQLTQSPSFLSASVGDRVTITCWASQGISSYLAWYQQKPGKAPKLLIYAASTLQSGVPSRFSGSGSGTEFTLTISSLQPEDFATYYCQQLNSYPPTFGQGTRLEIK
modifications: peptides N-terminally acetylated and C-terminally amidated
In turn, B1 had a binding score of 1.5.

B2: CL-449759 (antibody, V domains shown)
VH: QVHLVESGGGVVQPGESQRLSCAASGFTFSNYGMHWVRQAPGKGLEWVALIWYDGSNKFYADSVKGRFTISRDNSKNTLYLHMNSLRAEDTAMYYCAKVPNWNDDKYTMDVWGQGTTVTVTS
VL: not shown
modifications: peptides N-terminally acetylated and C-terminally amidated
Molecule B2 had a binding score of 2.4.

B3: CL-512374 (antibody, V domains shown)
VH: QVQLVESGGGVVQPGRSLRLSCAASGFTFSSYGMHWVRQAPGKGLEWVAVIWYDGSNKYYADSVKGRFTISRDNSKNTLYLQMNSLRAEDTAVYYCARDGGGTTRSFDLWGRGTLVTVSS
VL: QSVLTQPPSVSGAPGQRVTISCTGSSSNIGAGYDVHWYQQLPGTAPKLLIYGNSNRPSGVPDRFSGSKSGTSASLAITGLQAEDEADYYCQSYDSSLSGSMFGGGTKLTVL
modifications: peptides N-terminally acetylated and C-terminally amidated
B3: the binding score came to 1.17.

B4: CL-510433 (antibody, V domains shown)
VH: QVQLVESGGGVVQPGRSLRLSCVASGFTFSSYGMHWVRQAPGKGLEWVAVIWYDGSNKYYADSVKGRFTVSRDNSKNTLYLQMNSLRAEDTAVYYCARVYYYGSGSYSPYYYALDVWGHGTTVTVSS
VL: EIVMTQSPATLSVSPGERATLSCRASQSISSNLAWYQQKPGQAPRLLIYGASIRATGIPARFSGSGSGTEFTLSISILQSEDFAIYYCQQYNNWWTFGQGTKVEIK
modifications: peptides N-terminally acetylated and C-terminally amidated
For the molecule B4, the binding score was found to be 1.76.

B5: Ky230 (antibody, V domains shown)
VH: QVQLVESGGGVVQPGRSLRLSCAASGFTFSDYGMHWVRQAPGKGLEWVAIIWHDGSNKYYVDSVKGRFTISRDNSKNTLYLQMNSLRAEDTAVYYCARAASSFGSGFDYWGQGTLVTVSS
VL: DVVMTQSPLSLPVTLGQPASIFCRSSQSLVYSDGNTYLNWFQRRPGQSPRRLIYKVSDRDSGVPDRFSGSGSGTDFTLQISRVEAEDVGVYYCMQGTHWPPTFGQGTKVEIK
modifications: peptides N-terminally acetylated and C-terminally amidated
In the case of B5, the binding score is 2.4.

B6: CL-437492 (antibody, V domains shown)
VH: QEQLVESGGGVVQPGNSLRLSCVASGFTFSNHGMHWVRQAPGKGLEWVAIIWYDGSQKFYSDSVKGRFTISRDNSKNTLYLQMNSLRAEDTAIYYCARVDWSGNDWGWFDPWGQGTLVTVSS
VL: EIVLTQSPDTLSLSPGERATLSCRASQTLSSRHLAWYQQKPGQAPRLLIYGASSRATGIPDRFSGSGSGTDFTLTINRLEPEDFAVFYCQQYGRLWTFGQGTKVEIK
modifications: peptides N-terminally acetylated and C-terminally amidated
In turn, B6 returned a binding score of 2.2.

B7: CL-512508 (antibody, V domains shown)
VH: QVQLVESGGGVVQPGTSLRLSCGASGFTFSSYGMHWVRQAPGKGLEWVAIIWYDGNNKYYADSVKGRFTISRDNSKNTLYLQMNSLRAEDTAVYYCAKVGQFSTSSWGAFDIWGQGTMVTVSS
VL: EIVLTQSPGTLPLSPGERATLSCRASQSVSSSQLAWYQQKPGQAPRLLIYGASSRATAIPDRFSGSGSGTDFTLTISRLEPEDFAVYYCQQYSRLWTFGQGTKVEIK
modifications: peptides N-terminally acetylated and C-terminally amidated
As for B7, the binding score is 2.01.

B8: CL-512191 (antibody, V domains shown)
VH: QVQLVESGGGVVQPGRSLRLSCAASGFTFSNYAMHWVRQAPGKGLEWVAVIWYDGSNKYYADSVKGRFTISRDDSKNTLYLQMNSLRAEDTAVYYCARDKGYRYGFNWFDPWGQGTLVTVSS
VL: QSVLTQPPSVSGAPGQRVTISCTGSSSNIGAGYDVHWYQKLPGTAPKLLIFSNSNRPSGVPDRFSGSKSGTSASLAITGLQAEDEADYYCQSYDSSLSGSRVFGGGTKLTVL
modifications: peptides N-terminally acetylated and C-terminally amidated
For B8, the binding score amounted to 2.31.

B9: CL-531271 (antibody, V domains shown)
VH: QVQLVESGGGEVQPGRSLRLSCAASGFTFSNYGMHWVRQAPGKGLEWVALIWYDGNNKFYADSVNGRFTISRDNSNNTLYLQMNSLRAEDTGVYYCARSFYYVSGNFFDYWGQGTLVTVSS
VL: DIPMTQSPSSVSASVGDRVTITCRASQGISTWLAWYQQKPGKAPKFLIYAASSLQSGVPSRFSGSGSGTDFTLTIYSLQPEDFATYYCQQGNSFPWTFGQGTKVEIK
modifications: peptides N-terminally acetylated and C-terminally amidated
For the molecule B9, the binding score came to 2.36.

B10: CL-453181 (antibody, V domains shown)
VH: QVQLVESGGGVVQPGRSLRLSCAASGFTFSYYGMHWVRQAPGKGLEWVSIIWYDGSNKFYADSVKGRFTISRDNSKDTLYLEMNSLRAEDTAVYYCARVEFYNGSGRDFYYGLDVWGQGTTVTVSS
VL: EIVMTQSPATLSVSPGEGATLSCRASQSVSSNLAWYQQKPGQAPRLLISGASTRATGVPARFSGSGSGTEFALTISSLQSEDFAVYYCQQYSKLWTFGQGTKVEIK
modifications: peptides N-terminally acetylated and C-terminally amidated
For the molecule B10, the binding score stood at 2.6.

B11: CL-511862 (antibody, V domains shown)
VH: QVQLVESGGGVVQPGKSLRLSCAASGFSFSSSGMHWVRQAPDKGLEWVAIIWYDGSHKFYADSVKGRFTISRDNSDNTLFLQMDSLRAEDTAVYYCVRAYPTSYNGNYDKYGMDVWGQGTTVTVSS
VL: DIQMTQSPSTLSASVGDRVTIACRASQSISTWLAWYQQKPGKAPKLLIYKASTLESGVPSRFSGSGSGTEFTLTISSLQPDDFATYYCQQFTFYWTFGQGTKVEIK
modifications: peptides N-terminally acetylated and C-terminally amidated
Consider B11, for which the binding score came out at 2.53.

B12: CL-447563 (antibody, V domains shown)
VH: QVQLVASGGGVVQPGRSLRLSCAASGFTFSNYGMHWVRQAPGKGLEWVAIIWYDGSKKYYSDSVKGRFTISRDNSKNTLYLQMNSLRAEDTAVYYCARAYGSGSYSDDYYGMDVWGQGTTVTVSS
VL: DIQMTQSPSTLSASVGDRVTITCRASQSISTWLAWYQQKPGKAPKLLIYKASNLESGVPSRFSGSGSGTEFTLTISSLQPDDFATYYCQQYYSYWTFGQGTKVEIK
modifications: peptides N-terminally acetylated and C-terminally amidated
B12 gave a binding score of 2.5.

B13: CL-459075 (antibody, V domains shown)
VH: QVQLVASGGGVVQPGRSLRLSCAASGFTFSNYGMHWVRQAPGKGLEWVSIIWYDGSKKYYSDSVKGRFTISRDNSKNTLYLQMNSLRAEDTAVYYCARAYGSGSYSDDYYGMDVWGQGTTVTVSS
VL: DIQMTQSPSTLSASVGDRVTITCRASQSISTWLAWCQQKPGKAPKLLIYKASNLESGVPSRFSGSGSGTEFTLTISSLQPDDFATYYCQQYYSYWTFGQGTKVEIK
modifications: peptides N-terminally acetylated and C-terminally amidated
With B13, the binding score is 2.5.

B14: CL-511296 (antibody, V domains shown)
VH: QVQLVASGGGVVQPGRSQRLSCAASGFTFSNYGMHWVRQSPGRGLEWVAIIWYDGSNKFYADSVKGRFTISRDNSRNTLFLQMNSLRAEDTAIYYCAKSEERTSDNYFKYGMDVWGQGTTVIVST
VL: DIQMTQSPSTLSASVGDRVTITCRASQSISSWLAWYQQKPGKAPKLLIYKASNLESGVPSRFSGSGSGTEFTLSISNLQPDDFATYFCQQYTSYWTFGQGTKVEIK
modifications: peptides N-terminally acetylated and C-terminally amidated
B14: the binding score was determined as 2.34.

B15: CL-512319 (antibody, V domains shown)
VH: QVQLVESGGGVVQPGRSLRLSCAASGFTFSNFGMHWVRQAPGKGLEWVAVIWYDGSHKFYADSLKGRFTISRDNSKNTLYLQMNNLRAEDTAVYYCARAHPVTTDYDKYGMDVWGQGTTVTVSS
VL: DIQMTQSPSTLSSSVGDRVTITCRASQSISIWLAWIQQKPGKAPKLLIYKASSLESGVPSRFSGSGSGTEFTLTISSLQPDDFATYYCQQFYSYWTFGLGTKVEIK
modifications: peptides N-terminally acetylated and C-terminally amidated
B15 gave a binding score of 2.08.

B16: CL-508758 (antibody, V domains shown)
VH: QVQLVESGGGVVQPGRSLRLSCAASGFTFSNYGMHWVRQTPGRDLEWVAIIWYDGSYKFYADSVKGRFSISRDNSKNTLNLEMKSLRVEDTAVYYCAKAYDTSSDDKYGMDVWGQGTTVTVTS
VL: DIQMTQSPSTLSASVGDRVTITCRASQSISIWLAWYQQKPGKAPKLLIYRASDLESGVPSRFSGSGSGTGFTLTISSLQPDDFATYYCQQYNSYWTFGQGTKVEIK
modifications: peptides N-terminally acetylated and C-terminally amidated
In turn, B16 gave a binding score of 2.17.

B17: CL-513691 (antibody, V domains shown)
VH: QVQLVESGGDVVQTGRSLRLSCAASGFTFSNYGMHWVRQAPDKGLEWVAIIWYDGSNKFYADSVKGRFTISRDNSKNTLYLHIHSLRAEDTAVYYCARDDRGDSAGPYFVYWGQGTLVTVSS
VL: EIVMTQSPATLSVSPGERATLSCRASQSVSDNLAWYQQRPGQAPRLLIYGASIRATGIPARFGGSGSGTEFTLTISILQSADFAVYYCQQHDSWPWTFGQGTKVEIK
modifications: peptides N-terminally acetylated and C-terminally amidated
B17 yielded a binding score of 2.36.

B18: CL-458015 (antibody, V domains shown)
VH: QVHLVESGGGVVQPGRSLRLSCAASGFTFSNYGMHWVRQAPGKGLDWVAIIWYDGSNKFYADSVQGRFTISRDNSKNTLYLQMNSLRAEDTAVYYCAKVQDLLGVPSTLGDHYTTDVWGQGTSVTVSS
VL: DIQMTQSPSTLSASVGDRITITCRASQSINDWLAWYQQKAGKAPKLLIYKASSLESGVPSRFSGSGSGTDFTLTISSLQTDDFAIYYCQQYNHYWTFGQGTKVEIK
modifications: peptides N-terminally acetylated and C-terminally amidated
As to B18, the binding score is 2.2.

B19: CL-512459 (antibody, V domains shown)
VH: QVQLVESGGGVVQPGRSLRLSCTASGFTFSDYGMHWVRQAPGKGLEWVSIIWYDGSKKYYADSVQGRFTISRDNSKNTLYLQMSSLRAEDTAVYYCARAYGSGSYYTFNYWGQGTLVTVSS
VL: EIVMTQSPATLSVSPGERATLSCRASQSVNSNLAWYQQKPGQAPRLLIYGASTRATGFPARFIGSGSGTDFTLTINSLQSEDFAVYYCQQYNHWWTFGQGTKVEIK
modifications: peptides N-terminally acetylated and C-terminally amidated
For the molecule B19, the binding score stood at 2.08.

B20: CL-510082 (antibody, V domains shown)
VH: QVQLVESGGGVVQPGKSLRLSCVASGFTFSNNGMHWIRQAPGKGLEWVAIIWYDGSNKFYADSVKGRFTISRDNSHNTLYLQMNSLRAEDTAVYYCARDRMFGSGTWNYFDPWGQGTLVTVSS
VL: EIVLTQSPATLSLSPGERATLSCRASQSVSTYLAWYQQKPGQAPRLLIYDASNRATGIPARFSGSGSGTDFTLTISSLEPEDFAVYYCQQRSYWWTFGQGTKVEIK
modifications: peptides N-terminally acetylated and C-terminally amidated
Turning to B20, the binding score was 2.38.

B21: Ky311 (antibody, V domains shown)
VH: QMHLVESGGGVVQPGRSLRLSCVASGFTFNNHGMHWVRQAPGKGLEWVAVIWHDGSNKFYADSVNGRFIVSRDNSKNTLYLHMNSLRAEDTAVYYCARDFFVSGSYNYFDPWGQGTLVTVSS
VL: EIVLTQSPVTLSLSPGERATLSCRASQSVSNYLAWYQQKPGQAPRLLIYDAANRATGTPARFSGSGSGTDFTLTISSLEPEDFAVYFCQQRSKWFTFGPGTKLDIK
modifications: peptides N-terminally acetylated and C-terminally amidated
Regarding B21, the binding score turned out to be 2.22.
